Experimental data from IntAct's records for PubMed 17909018.

B1: Cyclin-dependent kinase inhibitor 2A (Homo sapiens), P42771 (parent)
chain: MEPAAGSSMEPSADWLATAAARGRVEEVRALLEAGALPNAPNSYGRRPIQVMMMGSARVAELLLLHGAEPNCADPATLTRPVHDAAREGFLDTLVVLHRAGARLDVRDAWGRLPVDLAEELGHRDVARYLRAAAGGTRGSNHARIDAAEGPSDIPD

Assays:
cdk4_human CDK4, P11802 [1] = variants of: B1; details: with cdk4_human CDK4, P11802
cdk4_human CDK4, P11802 [2] = variants of: B1; details: with cdk4_human CDK4, P11802; remark: listed apart in the source
cdk6_human CDK6, Q00534 = variants of: B1; details: with cdk6_human CDK6, Q00534
Sequence of cdk6_human CDK6, Q00534 (Q00534 whole entry): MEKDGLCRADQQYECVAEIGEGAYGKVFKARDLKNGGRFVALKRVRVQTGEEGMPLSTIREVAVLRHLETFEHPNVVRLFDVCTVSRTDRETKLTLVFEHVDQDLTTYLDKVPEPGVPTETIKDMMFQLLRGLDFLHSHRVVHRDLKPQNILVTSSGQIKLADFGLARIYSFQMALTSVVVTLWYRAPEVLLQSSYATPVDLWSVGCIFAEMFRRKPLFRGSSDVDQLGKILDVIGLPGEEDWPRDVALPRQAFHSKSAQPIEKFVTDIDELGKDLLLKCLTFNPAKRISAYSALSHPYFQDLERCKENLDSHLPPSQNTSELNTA

Sequence of cdk4_human CDK4, P11802 (P11802 whole entry): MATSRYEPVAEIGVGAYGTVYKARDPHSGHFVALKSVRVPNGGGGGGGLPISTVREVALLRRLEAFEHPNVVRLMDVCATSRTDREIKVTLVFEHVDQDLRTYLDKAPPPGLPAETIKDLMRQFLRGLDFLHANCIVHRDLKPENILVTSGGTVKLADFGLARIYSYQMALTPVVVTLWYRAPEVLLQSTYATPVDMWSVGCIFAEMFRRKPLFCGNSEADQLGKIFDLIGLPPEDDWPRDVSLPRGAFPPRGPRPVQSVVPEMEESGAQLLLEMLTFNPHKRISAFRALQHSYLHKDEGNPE

| effect of a mutation on the interaction (cdk4_human CDK4, P11802 [1]) | effect of a mutation on the interaction (cdk4_human CDK4, P11802 [2]) | effect of a mutation on the interaction (cdk6_human CDK6, Q00534) | Variant |
| --- | --- | --- | --- |
| disrupting interaction |  |  | R24P |
| disrupting interaction | disrupting interaction strength | disrupting interaction | A20P |
